Article PMC5673658, “Single-Molecule Fluorescence Methods to Study Plant Hormone Signal Transduction Pathways” (Frontiers in Plant Science, 2017)

Tests used:
[1] = target: phosphorylated BES1 (pBES1), BES1 with a His-tag phosphorylated by BIN2 (UniProt Q9LN63); test: CoSMoS (colocalization single-molecule spectroscopy, TIRFM); His-tagged pBES1 immobilised on the slide; binding percentage of 14-3-3κ with pBES1 before and after incubation for 1 h with pBKI1C at >1,000 times the concentration of pBES1
phosphorylated BES1 (pBES1), BES1 with a His-tag phosphorylated by BIN2, sequence (Q9LN63 whole entry): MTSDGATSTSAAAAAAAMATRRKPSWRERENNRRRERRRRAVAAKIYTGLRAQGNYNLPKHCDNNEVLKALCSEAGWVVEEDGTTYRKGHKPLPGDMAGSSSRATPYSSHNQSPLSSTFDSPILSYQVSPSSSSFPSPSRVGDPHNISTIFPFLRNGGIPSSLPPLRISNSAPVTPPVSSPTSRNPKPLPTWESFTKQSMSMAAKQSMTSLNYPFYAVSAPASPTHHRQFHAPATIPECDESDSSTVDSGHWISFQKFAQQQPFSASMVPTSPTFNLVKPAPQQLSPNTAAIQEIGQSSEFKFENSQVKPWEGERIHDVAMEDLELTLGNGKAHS

[2] = target: 14-3-3κ as used in the CoSMoS competition experiment (UniProt P48348); test: as above
[3] = target: the molecule itself; test: single-molecule TIRF microscopy, stepwise photobleaching; His-tagged BES1 phosphorylated by BIN2 (30 min, 37°C) immobilised on the slide; 14-3-3κ/C103S-alexa555 added; bleaching steps counted in 188 trajectories; labeling efficiency 34.7%

## 14-3-3κ as used in the CoSMoS competition experiment (from UniProt P48348 1-248)
[1]
  binding percentage of 14-3-3κ with pBES1 before pBKI1C: 18%

## phosphorylated BKI1 C terminal (pBKI1C), BKI1C phosphorylated by JKC (domain or fragment)
[2]
  binding percentage of 14-3-3κ with pBES1 left after pBKI1C (>1,000 times the concentration of pBES1, 1 h): 9%

B1: alexa555-labeled 14-3-3κ/C103S (natural protein, UniProt P48348 1-248, looked up)
chain: MATTLSRDQYVYMAKLAEQAERYEEMVQFMEQLVSGATPAGELTVEERNLLSVAYKNVIGSLRAAWRIVSSIEQKEESRKNEEHVSLVKDYRSKVETELSSISSGILRLLDSHLIPSATASESKVFYLKMKGDYHRYLAEFKSGDERKTAAEDTMIAYKAAQDVAVADLAPTHPIRLGLALNFSVFYYEILNSSEKACSMAKQAFEEAIAELDTLGEESYKDSTLIMQLLRDNLTLWTSDMQEQMDEA
modifications: alexa555 (maleimide derivative) on a cysteine, site not given; labeling efficiency 34.7%
notes: 14-3-3κ (14-3-3 kappa), a plant 14-3-3 protein of the brassinosteroid signaling pathway; printed molecular weight 29073.70 D; also called 14-3-3κ/C103S-alexa555; 14-3-3κ-alexa555; source: E. coli BL21 (DE3)-plysS, purified (amylose and gel filtration columns)
[3]
  stoichiometry N: 2
